Target: TM-JM peptide of EGFR labelled at the N-terminus with Cy3 or Cy5
Assay: FRET or BRET

percent of peptide dimers with a high FRET efficiency state in the trajectories: 95%
Substance: TM-JM peptide of EGFR labelled at the N-terminus with Cy3 or Cy5

Source: publication doi:10.1101/197673
